Source: patent publication US20220411483A1 (Chugai, published 2022)

T1: FcgRIIb (human, UniProt P31994 43-217)
T1 construct: extracellular domain; also called FcγRIIb
T1 sequence (looked up): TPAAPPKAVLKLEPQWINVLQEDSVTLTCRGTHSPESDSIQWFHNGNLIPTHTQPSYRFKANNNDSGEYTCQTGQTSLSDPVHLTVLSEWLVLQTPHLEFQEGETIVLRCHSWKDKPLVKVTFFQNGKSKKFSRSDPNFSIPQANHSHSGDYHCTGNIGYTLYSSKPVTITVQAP

T2: FcgRIIaR (human, UniProt P12318 34-217)
T2 construct: extracellular domain; also called FcγRIIa R type; FcγRIIa (R type)
T2 sequence (looked up): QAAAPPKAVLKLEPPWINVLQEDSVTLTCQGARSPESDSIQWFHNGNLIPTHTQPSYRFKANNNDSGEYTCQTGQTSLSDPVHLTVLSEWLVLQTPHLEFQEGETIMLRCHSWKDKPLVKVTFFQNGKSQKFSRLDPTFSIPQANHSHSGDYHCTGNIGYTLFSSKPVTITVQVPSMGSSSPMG

T3: FcgRIIaH (human, UniProt P12318 34-217)
T3 construct: extracellular domain; also called FcγRIIa H type
T3 sequence (looked up): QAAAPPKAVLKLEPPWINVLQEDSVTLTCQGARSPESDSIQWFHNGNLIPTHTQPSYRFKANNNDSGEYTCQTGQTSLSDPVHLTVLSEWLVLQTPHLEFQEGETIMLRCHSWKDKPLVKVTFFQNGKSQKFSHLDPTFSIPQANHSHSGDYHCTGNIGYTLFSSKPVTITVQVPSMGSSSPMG


Key:
FcgRIIb [1] = target: T1, FcgRIIb; assay: SPR, amount bound per captured antibody
FcgRIIaR [2] = target: T2, FcgRIIaR; assay: SPR, amount bound per captured antibody
FcgRIIIaV = target: T4, FcgRIIIaV (human, UniProt P08637 17-208); assay: SPR (Biacore)
T4 construct: extracellular domain; also called FcγRIIIa V type
T4 sequence (P08637 17-208 F176V): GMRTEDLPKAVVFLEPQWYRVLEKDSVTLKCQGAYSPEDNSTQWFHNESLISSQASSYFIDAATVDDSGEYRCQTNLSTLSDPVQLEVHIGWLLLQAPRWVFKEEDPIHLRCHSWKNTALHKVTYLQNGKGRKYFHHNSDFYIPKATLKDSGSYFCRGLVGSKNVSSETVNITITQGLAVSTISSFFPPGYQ

FcgRIIb [3] = target: T1, FcgRIIb; assay: SPR (Biacore)
FcgRIIaH = target: T3, FcgRIIaH; assay: SPR (Biacore)
FcgRIa = target: T5, FcgRIa (human, UniProt P12314 16-292); assay: SPR (Biacore)
T5 construct: also called FcγRIa; FcγRI
T5 sequence (P12314 16-292): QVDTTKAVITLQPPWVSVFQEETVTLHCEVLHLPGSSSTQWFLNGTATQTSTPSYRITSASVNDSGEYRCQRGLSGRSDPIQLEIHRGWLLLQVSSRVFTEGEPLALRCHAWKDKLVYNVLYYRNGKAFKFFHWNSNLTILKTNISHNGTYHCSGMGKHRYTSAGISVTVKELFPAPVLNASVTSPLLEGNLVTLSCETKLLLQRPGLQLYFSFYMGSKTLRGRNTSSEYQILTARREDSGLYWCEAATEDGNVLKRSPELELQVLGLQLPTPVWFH

FcgRIIaR [4] = target: T2, FcgRIIaR; assay: SPR (Biacore)
FcgRIIb [5] = target: T1, FcgRIIb; assay: SPR, amount bound per captured antibody; remark: listed apart in the source
FcgRIIaR [6] = target: T2, FcgRIIaR; assay: SPR, amount bound per captured antibody; remark: listed apart in the source

Binder | Relative FcgRIIb-binding Activity (FcgRIIb [1]) [IL6R-BP267/IL6R-L=100] | Relative FcgRIIaR-binding Activity (FcgRIIaR [2]) [IL6R-BP267/IL6R-L=100] | Relative FcgRIIIaV-binding Activity (FcgRIIIaV) | Relative FcgRIIb-binding Activity (FcgRIIb [3]) | Relative FcgRIIaH-binding Activity (FcgRIIaH) | Relative FcgRIa-binding Activity (FcgRIa) | Relative FcgRIIaR-binding Activity (FcgRIIaR [4]) | Relative FcgRIIb-binding Activity (FcgRIIb [5]) [IL6R-G1d/IL6R-L=100] | Relative FcgRIIaR-binding Activity (FcgRIIaR [6]) [IL6R-G1d/IL6R-L=100]
IL6R-P629/IL6R-L (antibody, human IgG1, kappa) heavy: QVQLQESGPGLVKPSETLSLTCAVSGHSISHDHAWSWVRQPPGEGLEWIGFISYSGITNYNPSLQGRVTISRDNSKNTLYLQMNSLRAEDTAVYYCARSLARTTAMDYWGEGTLVTVSSASTKGPSVFPLAPSSKSTSGGTAALGCLVKDYFPEPVTVSWNSGALTSGVHTFPAVLQSSGLYSLSSVVTVPSSSLGTQTYICNVNHKPSNTKVDKKVEPKSCDKTHTCPPCPAPDLLGKDSVFLFPPKPKDTLMISRTPEVTCVVIDVAEEDGEVKFNWYVDGVEVHNAKTKPREEQYNSTYRVVSVLTVLHQDWLNGKEYKCKVSNKALPAPIEKTISKAKGQPREPQVYTLPPSRDELTKNQVSLTCLVKGFYPSDIAVEWESNGQPENNYKTTPPVLDSDGSFFLYSKLTVDKSRWQQGNVFSCSVMHEALHNHYTQKSLSLSP light: not shown |  |  | 0.007 KD(G1d)/KD(variant) | 7.97 KD(G1d)/KD(variant) | 0.01 KD(G1d)/KD(variant) | 0.1 KD(G1d)/KD(variant) | 0.047 KD(G1d)/KD(variant) | 164 | 29.9
IL6R-BP361/IL6R-L (antibody, human IgG1, kappa, name in EU numbering) heavy: QVQLQESGPGLVKPSETLSLTCAVSGHSISHDHAWSWVRQPPGEGLEWIGFISYSGITNYNPSLQGRVTISRDNSKNTLYLQMNSLRAEDTAVYYCARSLARTTAMDYWGEGTLVTVSSASTKGPSVFPLAPSSKSTSGGTAALGCLVKDYFPEPVTVSWNSGALTSGVHTFPAVLQSSGLYSLSSVVTVPSSSLGTQTYICNVNHKPSNTKVDKKVEPKSCDKTHTCPPCPAPDLLGDDSVFLFPPKPKDTLMISRTPEVTCVVVDVREEDGEVKFNWYVDGVEVHNAKTKPREEQYNSTYRVVSVLTVLHQDWLNGKEYKCKVSNKALPAPIEKTISKAKGQPREPQVYTLPPSRDELTKNQVSLTCLVKGFYPSDIAVEWESNGQPENNYKTTPPVLDSDGSFFLYSKLTVDKSRWQQGNVFSCSVMHEALHNHYTQESLSLSP light: not shown | 27.7 | 17.3 |  |  |  |  |  |  | 
IL6R-P626/IL6R-L (antibody, human IgG1, kappa) heavy: QVQLQESGPGLVKPSETLSLTCAVSGHSISHDHAWSWVRQPPGEGLEWIGFISYSGITNYNPSLQGRVTISRDNSKNTLYLQMNSLRAEDTAVYYCARSLARTTAMDYWGEGTLVTVSSASTKGPSVFPLAPSSKSTSGGTAALGCLVKDYFPEPVTVSWNSGALTSGVHTFPAVLQSSGLYSLSSVVTVPSSSLGTQTYICNVNHKPSNTKVDKKVEPKSCDKTHTCPPCPAPDRLGGDSVFLFPPKPKDTLMISRTPEVTCVVIDVAEEDGEVKFNWYVDGVEVHNAKTKPREEQYNSTYRVVSVLTVLHQDWLNGKEYKCKVSNKALPAPIEKTISKAKGQPREPQVYTLPPSRDELTKNQVSLTCLVKGFYPSDIAVEWESNGQPENNYKTTPPVLDSDGSFFLYSKLTVDKSRWQQGNVFSCSVMHEALHNHYTQKSLSLSP light: not shown |  |  | 0.005 KD(G1d)/KD(variant) | 1.9 KD(G1d)/KD(variant) | 0.005 KD(G1d)/KD(variant) | 0.0004 KD(G1d)/KD(variant) | 0.041 KD(G1d)/KD(variant) | 129 | 24.4
IL6R-BP355/IL6R-L (antibody, human IgG1, kappa, name in EU numbering) heavy: QVQLQESGPGLVKPSETLSLTCAVSGHSISHDHAWSWVRQPPGEGLEWIGFISYSGITNYNPSLQGRVTISRDNSKNTLYLQMNSLRAEDTAVYYCARSLARTTAMDYWGEGTLVTVSSASTKGPSVFPLAPSSKSTSGGTAALGCLVKDYFPEPVTVSWNSGALTSGVHTFPAVLQSSGLYSLSSVVTVPSSSLGTQTYICNVNHKPSNTKVDKKVEPKSCDKTHTCPPCPAPDLLGDDSVFLFPPKPKDTLMISRTPEVTCVVVDVKEEDGEVKFNWYVDGVEVHNAKTKPREEQYNSTYRVVSVLTVLHQDWLNGKEYKCKVSNKALPAPIEKTISKAKGQPREPQVYTLPPSRDELTKNQVSLTCLVKGFYPSDIAVEWESNGQPENNYKTTPPVLDSDGSFFLYSKLTVDKSRWQQGNVFSCSVMHEALHNHYTQESLSLSP light: not shown | 14.4 | 11.6 |  |  |  |  |  |  | 
IL6R-P631/IL6R-L (antibody, human IgG1, kappa) heavy: QVQLQESGPGLVKPSETLSLTCAVSGHSISHDHAWSWVRQPPGEGLEWIGFISYSGITNYNPSLQGRVTISRDNSKNTLYLQMNSLRAEDTAVYYCARSLARTTAMDYWGEGTLVTVSSASTKGPSVFPLAPSSKSTSGGTAALGCLVKDYFPEPVTVSWNSGALTSGVHTFPAVLQSSGLYSLSSVVTVPSSSLGTQTYICNVNHKPSNTKVDKKVEPKSCDKTHTCPPCPAPDLLGGDSVFLFPPKPKDTLMISRTPEVTCVVINVAEEDGEVKFNWYVDGVEVHNAKTKPREEQYNSTYRVVSVLTVLHQDWLNGKEYKCKVSNKALPAPIEKTISKAKGQPREPQVYTLPPSRDELTKNQVSLTCLVKGFYPSDIAVEWESNGQPENNYKTTPPVLDSDGSFFLYSKLTVDKSRWQQGNVFSCSVMHEALHNHYTQKSLSLSP light: not shown |  |  | 0.007 KD(G1d)/KD(variant) | 1.16 KD(G1d)/KD(variant) | 0.01 KD(G1d)/KD(variant) | 0.03 KD(G1d)/KD(variant) | 0.048 KD(G1d)/KD(variant) | 110 | 26.7
IL6R-P625/IL6R-L (antibody, human IgG1, kappa) heavy: QVQLQESGPGLVKPSETLSLTCAVSGHSISHDHAWSWVRQPPGEGLEWIGFISYSGITNYNPSLQGRVTISRDNSKNTLYLQMNSLRAEDTAVYYCARSLARTTAMDYWGEGTLVTVSSASTKGPSVFPLAPSSKSTSGGTAALGCLVKDYFPEPVTVSWNSGALTSGVHTFPAVLQSSGLYSLSSVVTVPSSSLGTQTYICNVNHKPSNTKVDKKVEPKSCDKTHTCPPCPAPDKLGGDSVFLFPPKPKDTLMISRTPEVTCVVIDVAEEDGEVKFNWYVDGVEVHNAKTKPREEQYNSTYRVVSVLTVLHQDWLNGKEYKCKVSNKALPAPIEKTISKAKGQPREPQVYTLPPSRDELTKNQVSLTCLVKGFYPSDIAVEWESNGQPENNYKTTPPVLDSDGSFFLYSKLTVDKSRWQQGNVFSCSVMHEALHNHYTQKSLSLSP light: not shown |  |  | 0.005 KD(G1d)/KD(variant) | 3.06 KD(G1d)/KD(variant) | 0.005 KD(G1d)/KD(variant) | 0.0007 KD(G1d)/KD(variant) | 0.051 KD(G1d)/KD(variant) | 141 | 26.8

Now from value to binder:

Relative FcgRIIb-binding Activity (FcgRIIb [1]) [IL6R-BP267/IL6R-L=100] | Relative FcgRIIaR-binding Activity (FcgRIIaR [2]) [IL6R-BP267/IL6R-L=100] | Relative FcgRIIIaV-binding Activity (FcgRIIIaV) | Relative FcgRIIb-binding Activity (FcgRIIb [3]) | Relative FcgRIIaH-binding Activity (FcgRIIaH) | Relative FcgRIa-binding Activity (FcgRIa) | Relative FcgRIIaR-binding Activity (FcgRIIaR [4]) | Relative FcgRIIb-binding Activity (FcgRIIb [5]) [IL6R-G1d/IL6R-L=100] | Relative FcgRIIaR-binding Activity (FcgRIIaR [6]) [IL6R-G1d/IL6R-L=100] | Binder
21 | 11.6 |  |  |  |  |  |  |  | IL6R-BP325/IL6R-L (antibody, human IgG1, kappa, name in EU numbering) heavy: QVQLQESGPGLVKPSETLSLTCAVSGHSISHDHAWSWVRQPPGEGLEWIGFISYSGITNYNPSLQGRVTISRDNSKNTLYLQMNSLRAEDTAVYYCARSLARTTAMDYWGEGTLVTVSSASTKGPSVFPLAPSSKSTSGGTAALGCLVKDYFPEPVTVSWNSGALTSGVHTFPAVLQSSGLYSLSSVVTVPSSSLGTQTYICNVNHKPSNTKVDKKVEPKSCDKTHTCPPCPAPDLLGDDSVFLFPPKPKDTLMISRTPEVTCVVVSVSEEDGEVKFNWYVDGVEVHNAKTKPREEQYNSTYRVVSVLTVLHQDWLNGKEYKCKVSNKALPAPIEKTISKAKGQPREPQVYTLPPSRDELTKNQVSLTCLVKGFYPSDIAVEWESNGQPENNYKTTPPVLDSDGSFFLYSKLTVDKSRWQQGNVFSCSVMHEALHNHYTQESLSLSP light: not shown
 |  | 0.008 KD(G1d)/KD(variant) | 1.77 KD(G1d)/KD(variant) | 0.006 KD(G1d)/KD(variant) | 0.0007 KD(G1d)/KD(variant) | 0.023 KD(G1d)/KD(variant) | 120 | 13.8 | IL6R-P636/IL6R-L (antibody, human IgG1, kappa) heavy: QVQLQESGPGLVKPSETLSLTCAVSGHSISHDHAWSWVRQPPGEGLEWIGFISYSGITNYNPSLQGRVTISRDNSKNTLYLQMNSLRAEDTAVYYCARSLARTTAMDYWGEGTLVTVSSASTKGPSVFPLAPSSKSTSGGTAALGCLVKDYFPEPVTVSWNSGALTSGVHTFPAVLQSSGLYSLSSVVTVPSSSLGTQTYICNVNHKPSNTKVDKKVEPKSCDKTHTCPPCPAPDLLGGDSVFLFPPKPKDTLMISRTPEVTCVVIDVREEDGEVKFNWYVDGVEVHNAKTKPREEQYNSTYRVVSVLTVLHQDWLNGKEYKCKVSNKALPAPIEKTISKAKGQPREPQVYTLPPSRDELTKNQVSLTCLVKGFYPSDIAVEWESNGQPENNYKTTPPVLDSDGSFFLYSKLTVDKSRWQQGNVFSCSVMHEALHNHYTQKSLSLSP light: not shown
